Kd, koff and kon data for one molecule are collected here from paper PMC3913127 (Nature immunology, 2012).

For the test, the target named is …-loaded H-2D^d (mouse | ). Put plainly: SPR. For orientation: SPR reads the build-up and loss of mass on a sensor chip optically.

B1: Ly49A EC (entire extracellular domain of Ly49A, residues 67-262) (receptor, mouse (C57BL/6), UniProt P20937 67-262, looked up)
chain: KIFQYDQQKNCEEFLNHHNNCSNMQSDINLKDEMLKNKSIECDLLESLNRDQNRLYNKTKTVLDSLQHTGRGDKVYWFCYGMKCYYFVMDRKTWSGCKQACQSSSLSLLKIDDEDELKFLQLVVPSDSCWVGLSYDNKKKDWAWIDNRPSKLALNTGKYNIRDGGCMLLSKTRLDNGNCDQVFICICGKRLDKFPH
modifications: biotin (biotinylated Ly49A EC, captured on streptavidin)
As usually defined, the Kd is the free concentration of one partner at which half of the binding sites on the other are occupied at equilibrium, for simple one-to-one binding. Read a low Kd as a tighter complex. The term koff denotes a measure of how fast the partners let go of each other. What is called kon is the rate constant with which the complex forms. A high value points to faster complex formation. With B1, binding was put at a Kd of 2050 ± 70 nM, the koff was 0.00338 s⁻¹ and the association rate constant (kon) turned out to be 1650 M⁻¹ s⁻¹.
